The record followed here is US20250154198A1, “PEPTIDE INHIBITORS OF INTERLEUKIN-23 RECEPTOR” (Zealand Pharma A/S, priority 2021, published 2025).

Read-outs that look alike come from different tables or passages of the source. *1 amine or outer side, *2 acyl side, *3 side chain or, on linkers, in order; H or OH if unused. Bridges are numbered along the chain shown (N, C = ends). [ ]: non-standard residue; d: D form. 4‑Aminomethyl‑phenylacetyl = 4-aminomethyl-phenylacetyl unit, its amine closes the lactam, O=C(Cc1ccc(CN[*:1])cc1)[*:2]; 2Nal = N[C@@H](Cc1ccc2ccccc2c1)C(=O)O; AEF = NCCOc1ccc(C[C@H](N)C(=O)O)cc1; αMeL = CC(C)C[C@](C)(N)C(=O)O; CH2COCH2 = O=C(C[*:1])C[*:2]; αMeK = C[C@](N)(CCCCN)C(=O)O; 3Amb = NCc1cccc(C(=O)O)c1

Experiment [1] concerns the target T1, human IL-23R endogenously expressed on DB cells (CRL-2289) (human, UniProt Q5VWK5 24-629).
T1 sequence (looked up): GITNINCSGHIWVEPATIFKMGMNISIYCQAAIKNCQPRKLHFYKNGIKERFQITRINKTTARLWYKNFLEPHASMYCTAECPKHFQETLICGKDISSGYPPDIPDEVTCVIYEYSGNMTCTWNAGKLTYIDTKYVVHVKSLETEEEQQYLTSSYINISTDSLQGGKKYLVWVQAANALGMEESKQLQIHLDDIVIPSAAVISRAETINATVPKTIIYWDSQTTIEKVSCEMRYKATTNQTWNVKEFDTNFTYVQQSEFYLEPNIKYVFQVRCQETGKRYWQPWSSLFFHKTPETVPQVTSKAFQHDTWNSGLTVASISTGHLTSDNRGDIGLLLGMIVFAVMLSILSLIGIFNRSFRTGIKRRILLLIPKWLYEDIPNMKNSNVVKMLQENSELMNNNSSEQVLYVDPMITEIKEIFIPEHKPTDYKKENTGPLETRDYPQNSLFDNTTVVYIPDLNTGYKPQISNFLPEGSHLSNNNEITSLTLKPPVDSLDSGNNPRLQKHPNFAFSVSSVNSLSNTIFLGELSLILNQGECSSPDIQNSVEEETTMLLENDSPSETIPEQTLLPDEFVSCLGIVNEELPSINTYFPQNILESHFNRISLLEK
Nature of the experiment: cell-based or functional assay.

Experiment [2] addresses T2, Nluc-IL23R fusion protein (human, UniProt Q5VWK5 22-629).
T2 construct: range 22-629; Stably expressed in HEK293 cells; also called hIL-23R; human IL-23R fused to a Nanoluc luciferase enzyme; not shown: Nanoluc luciferase (Promega N1371 plasmid) at the N-terminus
T2 sequence (looked up): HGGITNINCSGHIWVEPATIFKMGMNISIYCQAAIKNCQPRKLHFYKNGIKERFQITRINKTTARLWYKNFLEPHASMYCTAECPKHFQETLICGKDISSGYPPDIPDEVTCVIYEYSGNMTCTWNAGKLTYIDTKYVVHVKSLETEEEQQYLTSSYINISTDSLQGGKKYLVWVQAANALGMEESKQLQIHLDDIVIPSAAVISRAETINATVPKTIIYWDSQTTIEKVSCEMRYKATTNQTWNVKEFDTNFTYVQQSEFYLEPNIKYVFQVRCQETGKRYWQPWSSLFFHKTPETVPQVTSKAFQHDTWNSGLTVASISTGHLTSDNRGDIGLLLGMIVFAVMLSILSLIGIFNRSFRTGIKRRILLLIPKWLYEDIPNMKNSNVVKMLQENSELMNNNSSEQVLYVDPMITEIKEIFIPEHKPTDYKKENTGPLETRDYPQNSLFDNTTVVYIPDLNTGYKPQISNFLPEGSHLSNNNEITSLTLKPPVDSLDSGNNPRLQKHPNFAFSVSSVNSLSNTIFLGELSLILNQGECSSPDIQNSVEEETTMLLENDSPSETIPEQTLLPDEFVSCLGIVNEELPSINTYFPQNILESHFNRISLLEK
Nature of the experiment: BRET displacement of TAMRA-labelled peptide, Nluc-IL23R membranes. In general terms: In BRET a luciferase serves as donor, and the signal depends on an acceptor being close.

Experiment [3] concerns the target T2, Nluc-IL23R fusion protein. Described as above. The source holds these as a separate data set.

B1: Compound 32 (peptide)
peptide: KSCWQCWXLER
HELM: PEPTIDE1{[ac].K.S.C.W.Q.C.W.[Cn1cc(C[C@H](N[*:1])C(=O)[*:2])c2ccccc21].L.E.R.[am]}|CHEM1{[O=C(C[*:1])C[*:2]]}$PEPTIDE1,PEPTIDE1,2:R3-11:R3|PEPTIDE1,CHEM1,4:R3-1:R1|PEPTIDE1,CHEM1,7:R3-1:R2$$$V2.0
SMILES: CC(=O)N[C@H]1CCCCNC(=O)CC[C@@H](C(=O)N[C@@H](CCCNC(=N)N)C(N)=O)NC(=O)[C@H](CC(C)C)NC(=O)[C@H](Cc2cn(C)c3ccccc23)NC(=O)[C@H](Cc2c[nH]c3ccccc23)NC(=O)[C@@H]2CSCC(=O)CSC[C@H](NC(=O)[C@H](CO)NC1=O)C(=O)N[C@@H](Cc1c[nH]c3ccccc13)C(=O)N[C@@H](CCC(N)=O)C(=O)N2
Broadly, the Ki is the dissociation constant of the complex between target and ligand, obtained from inhibition or displacement. High values mean lower affinity, low ones higher affinity. As for B1, the “IC50 (pSTAT3)” value in experiment [1] was found to be 118 nM. The same molecule returned a Ki in experiment [2] of 14.2 nM.

B2: Compound 41 (peptide)
peptide: [3Amb]SCWQC[AEF][2Nal][αMeL]E[dR]-NH2
modifications: lactam N-10; linker 3-6 via CH2COCH2
In experiment [3], B2 came in with a Ki of 2.31 nM. In experiment [1], the “IC50 (pSTAT3)” value was found to be 29.4 nM.

B3: Compound 52 (peptide)
peptide: [4‑Aminomethyl‑phenylacetyl]SCWQC[AEF][2Nal][αMeL]ER-NH2
modifications: lactam N-10; linker 3-6 via CH2COCH2
SMILES: CC(C)C[C@]1(C)NC(=O)[C@H](Cc2ccc3ccccc3c2)NC(=O)[C@H](Cc2ccc(OCCN)cc2)NC(=O)[C@@H]2CSCC(=O)CSC[C@H](NC(=O)[C@H](CO)NC(=O)Cc3ccc(cc3)CNC(=O)CC[C@@H](C(=O)N[C@@H](CCCNC(=N)N)C(N)=O)NC1=O)C(=O)N[C@@H](Cc1c[nH]c3ccccc13)C(=O)N[C@@H](CCC(N)=O)C(=O)N2
In experiment [3], B3 came in with a Ki of 0.0475 nM. Also, the “IC50 (pSTAT3)” value in experiment [1] was 7.85 nM.

B4: Compound 31 (peptide)
peptide: KSCWQCWXLER
HELM: PEPTIDE1{[ac].K.S.C.W.Q.C.W.[O=C([C@H](Cc1ccc(F)cc1)N[*:1])[*:2]].L.E.R.[am]}|CHEM1{[O=C(C[*:1])C[*:2]]}$PEPTIDE1,PEPTIDE1,2:R3-11:R3|PEPTIDE1,CHEM1,4:R3-1:R1|PEPTIDE1,CHEM1,7:R3-1:R2$$$V2.0
SMILES: CC(=O)N[C@H]1CCCCNC(=O)CC[C@@H](C(=O)N[C@@H](CCCNC(=N)N)C(N)=O)NC(=O)[C@H](CC(C)C)NC(=O)[C@H](Cc2ccc(F)cc2)NC(=O)[C@H](Cc2c[nH]c3ccccc23)NC(=O)[C@@H]2CSCC(=O)CSC[C@H](NC(=O)[C@H](CO)NC1=O)C(=O)N[C@@H](Cc1c[nH]c3ccccc13)C(=O)N[C@@H](CCC(N)=O)C(=O)N2
Take B4: in experiment [1], the “IC50 (pSTAT3)” value was found to be 968 nM. Moreover, in experiment [2], the Ki is 76.3 nM.

B5: Compound 60 (peptide)
peptide: Ac-DESCWQCW[2Nal][αMeL]KG-NH2
modifications: lactam 2-11; linker 4-7 via CH2COCH2
SMILES: CC(=O)N[C@@H](CC(=O)O)C(=O)N[C@H]1CCC(=O)NCCCC[C@@H](C(=O)NCC(N)=O)NC(=O)[C@](C)(CC(C)C)NC(=O)[C@H](Cc2ccc3ccccc3c2)NC(=O)[C@H](Cc2c[nH]c3ccccc23)NC(=O)[C@@H]2CSCC(=O)CSC[C@H](NC(=O)[C@H](CO)NC1=O)C(=O)N[C@@H](Cc1c[nH]c3ccccc13)C(=O)N[C@@H](CCC(N)=O)C(=O)N2
Turning to B5, the “IC50 (pSTAT3)” value in experiment [1] stood at 666 nM. In experiment [2], the affinity, expressed as Ki, was 212 nM.

B6: Compound 55 (peptide)
peptide: DEQCWQCYWXKR
HELM: PEPTIDE1{[ac].D.E.Q.C.W.Q.C.Y.W.[CC(C)C[C@](C)(N[*:1])C(=O)[*:2]].K.R.[am]}|CHEM1{[O=C(C[*:1])C[*:2]]}$PEPTIDE1,PEPTIDE1,3:R3-12:R3|PEPTIDE1,CHEM1,5:R3-1:R1|PEPTIDE1,CHEM1,8:R3-1:R2$$$V2.0
SMILES: CC(=O)N[C@@H](CC(=O)O)C(=O)N[C@H]1CCC(=O)NCCCC[C@@H](C(=O)N[C@@H](CCCNC(=N)N)C(N)=O)NC(=O)[C@](C)(CC(C)C)NC(=O)[C@H](Cc2c[nH]c3ccccc23)NC(=O)[C@H](Cc2ccc(O)cc2)NC(=O)[C@@H]2CSCC(=O)CSC[C@H](NC(=O)[C@H](CCC(N)=O)NC1=O)C(=O)N[C@@H](Cc1c[nH]c3ccccc13)C(=O)N[C@@H](CCC(N)=O)C(=O)N2
In the case of B6, the “IC50 (pSTAT3)” value in experiment [1] was more than 1 µM. For the same molecule, in experiment [2], the affinity corresponds to a Ki of 272 nM.

B7: Compound 59 (peptide)
peptide: Ac-DESCWQCW[2Nal][αMeL]KNG-NH2
modifications: lactam 2-11; linker 4-7 via CH2COCH2
SMILES: CC(=O)N[C@@H](CC(=O)O)C(=O)N[C@H]1CCC(=O)NCCCC[C@@H](C(=O)N[C@@H](CC(N)=O)C(=O)NCC(N)=O)NC(=O)[C@](C)(CC(C)C)NC(=O)[C@H](Cc2ccc3ccccc3c2)NC(=O)[C@H](Cc2c[nH]c3ccccc23)NC(=O)[C@@H]2CSCC(=O)CSC[C@H](NC(=O)[C@H](CO)NC1=O)C(=O)N[C@@H](Cc1c[nH]c3ccccc13)C(=O)N[C@@H](CCC(N)=O)C(=O)N2
For the molecule B7, the “IC50 (pSTAT3)” value in experiment [1] was 297 nM. The molecule also showed a Ki in experiment [2] of 139 nM.

B8: Compound 61 (peptide)
peptide: Ac-DESCWQCW[2Nal][αMeK]KENG-NH2
modifications: lactam 2-11; linker 4-7 via CH2COCH2
SMILES: CC(=O)N[C@@H](CC(=O)O)C(=O)N[C@H]1CCC(=O)NCCCC[C@@H](C(=O)N[C@@H](CCC(=O)O)C(=O)N[C@@H](CC(N)=O)C(=O)NCC(N)=O)NC(=O)[C@](C)(CCCCN)NC(=O)[C@H](Cc2ccc3ccccc3c2)NC(=O)[C@H](Cc2c[nH]c3ccccc23)NC(=O)[C@@H]2CSCC(=O)CSC[C@H](NC(=O)[C@H](CO)NC1=O)C(=O)N[C@@H](Cc1c[nH]c3ccccc13)C(=O)N[C@@H](CCC(N)=O)C(=O)N2
For the molecule B8, in experiment [1], the “IC50 (pSTAT3)” value is more than 1 µM. The molecule further came in with a Ki in experiment [2] of 436 nM.

B9: Compound 58 (peptide)
peptide: Ac-DESCWQCW[2Nal][αMeL]KENG-NH2
modifications: lactam 2-11; linker 4-7 via CH2COCH2
SMILES: CC(=O)N[C@@H](CC(=O)O)C(=O)N[C@H]1CCC(=O)NCCCC[C@@H](C(=O)N[C@@H](CCC(=O)O)C(=O)N[C@@H](CC(N)=O)C(=O)NCC(N)=O)NC(=O)[C@](C)(CC(C)C)NC(=O)[C@H](Cc2ccc3ccccc3c2)NC(=O)[C@H](Cc2c[nH]c3ccccc23)NC(=O)[C@@H]2CSCC(=O)CSC[C@H](NC(=O)[C@H](CO)NC1=O)C(=O)N[C@@H](Cc1c[nH]c3ccccc13)C(=O)N[C@@H](CCC(N)=O)C(=O)N2
For B9, the “IC50 (pSTAT3)” value in experiment [1] is 597 nM. In experiment [2], this molecule displayed a Ki of 201 nM.

B10: Compound 47 (peptide)
peptide: Ac-KSCWQC[AEF][2Nal][αMeL]ER-NH2
modifications: lactam 1-10; linker 3-6 via CH2COCH2
SMILES: CC(=O)N[C@H]1CCCCNC(=O)CC[C@@H](C(=O)N[C@@H](CCCNC(=N)N)C(N)=O)NC(=O)[C@](C)(CC(C)C)NC(=O)[C@H](Cc2ccc3ccccc3c2)NC(=O)[C@H](Cc2ccc(OCCN)cc2)NC(=O)[C@@H]2CSCC(=O)CSC[C@H](NC(=O)[C@H](CO)NC1=O)C(=O)N[C@@H](Cc1c[nH]c3ccccc13)C(=O)N[C@@H](CCC(N)=O)C(=O)N2
Turning to B10, the “IC50 (pSTAT3)” value in experiment [1] came out at 17.2 nM. This molecule also returned a Ki in experiment [2] of 0.624 nM.
